Experimental data reported in patent CN116444667A (SHANGHAI IASO BIOTECH CO LTD, dated 2023).

T1: GDF15 hFc tag, KACTUS, GDF-HM215 (UniProt Q99988 197-308)
T1 construct: also called GDF15蛋白; not shown: hFc tag
T1 sequence (looked up): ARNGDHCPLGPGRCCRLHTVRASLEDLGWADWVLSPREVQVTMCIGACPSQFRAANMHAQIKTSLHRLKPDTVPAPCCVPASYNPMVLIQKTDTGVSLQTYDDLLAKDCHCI

T2: Biotinylated CD39 Protein, hFc Tag, KACTUS, CD9-HM239B (UniProt P49961 38-478, biotinylated)
T2 construct: Control antigen; also called CD39-bio-hFc; 负淘选抗原; not shown: hFc tag
T2 sequence (looked up): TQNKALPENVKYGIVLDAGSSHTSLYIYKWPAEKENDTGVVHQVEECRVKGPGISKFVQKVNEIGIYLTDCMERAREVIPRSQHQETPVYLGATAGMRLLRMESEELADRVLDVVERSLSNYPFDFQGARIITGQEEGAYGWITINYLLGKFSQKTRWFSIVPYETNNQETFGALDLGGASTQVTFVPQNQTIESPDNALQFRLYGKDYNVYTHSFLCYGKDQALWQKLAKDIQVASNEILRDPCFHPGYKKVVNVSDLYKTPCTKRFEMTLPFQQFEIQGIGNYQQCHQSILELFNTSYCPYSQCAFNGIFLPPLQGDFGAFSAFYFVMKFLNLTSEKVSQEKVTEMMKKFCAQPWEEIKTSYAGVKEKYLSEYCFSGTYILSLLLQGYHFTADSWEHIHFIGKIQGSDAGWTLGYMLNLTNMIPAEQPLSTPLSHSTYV

T3: Biotinylated Human GDF15 Protein (Primary Amine Labeling), KACTUS, GDF-HM215B (human, UniProt Q99988 197-308, biotinylated (primary amine labeling))
T3 construct: Bought protein; also called human GDF15-bio-hFc; humanGDF15-bio-hFc; not shown: hFc tag
T3 sequence (looked up): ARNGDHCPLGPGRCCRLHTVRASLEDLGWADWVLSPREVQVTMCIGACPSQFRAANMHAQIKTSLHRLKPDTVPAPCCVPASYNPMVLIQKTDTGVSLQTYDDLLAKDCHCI

T4: Human Latent GDF-2/BMP-9 Protein, His tag, Acro, GD2-H52H3 (human, UniProt Q9UK05 23-429)
T4 construct: Bought protein, latent form; not shown: His tag
T4 sequence (looked up): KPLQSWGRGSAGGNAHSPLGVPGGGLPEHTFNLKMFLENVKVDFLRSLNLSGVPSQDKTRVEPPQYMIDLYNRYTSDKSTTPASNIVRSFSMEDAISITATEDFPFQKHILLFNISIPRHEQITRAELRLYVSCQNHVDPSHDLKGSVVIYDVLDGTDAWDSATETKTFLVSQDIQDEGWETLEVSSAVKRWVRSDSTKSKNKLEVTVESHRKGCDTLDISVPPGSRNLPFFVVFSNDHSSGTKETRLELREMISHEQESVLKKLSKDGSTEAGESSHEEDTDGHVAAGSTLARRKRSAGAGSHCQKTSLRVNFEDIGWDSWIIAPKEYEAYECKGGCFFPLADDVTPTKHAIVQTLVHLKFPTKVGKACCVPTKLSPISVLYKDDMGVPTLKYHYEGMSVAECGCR


Experiments:
[1] = target: T1, GDF15 hFc tag, KACTUS, GDF-HM215; experiment: competition ELISA: GDF15 hFc coated, antibody titrated against GFRAL His tag (competitor), anti-His HRP
[2] = target: T2, Biotinylated CD39 Protein, hFc Tag, …; experiment: phage ELISA
[3] = target: T3, Biotinylated Human GDF15 Protein …; experiment: phage ELISA
[4] = target: T4, Human Latent GDF-2/BMP-9 Protein, His …; experiment: phage ELISA
[5] = target: T5, Streptavidin (SA蛋白), Pierce, 21125 (UniProt P22629 37-163, limits assumed); experiment: phage ELISA
T5 construct: Control antigen in the specificity ELISA; also called Strepavidin
T5 sequence (P22629 37-163 limits assumed): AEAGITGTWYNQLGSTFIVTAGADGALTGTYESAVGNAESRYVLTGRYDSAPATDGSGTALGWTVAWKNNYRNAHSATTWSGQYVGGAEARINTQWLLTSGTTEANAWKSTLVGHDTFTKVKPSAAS

Row | Binder | EC50 [1] | binding result [2] | binding result [3] | binding result [4] | binding result [5]
1 | Clone 68 抗GDF15 IgG (human IgG4) (Fc fusion, also called GDF15 mAb; not shown: human IgG4 Fc) QVQLVQSGAEVKKPGASVKVSCKASGYTFTNYGINWVRQAPGQGLEWMGWISAYNGYTDYAQKLQGRVSMTTDTSTSTVYMELRSLRSDDTAVYYCARDDAINGGDYWGQGTLVTVSSTSGGGGSGGGGSGGGGSELSYVLTQPPSASGTPGQRVTISCSGSSSNIGINTVNWYQQLPGTAPKLLIYINNQRPSGVPDRFSGSKSGTSASLAISGLQSEDEADYYCAAWDDSLNAYVFGSGTKVTVL | 1.4 nM | – | – | – | –
2 | Clone 68 (噬菌体单克隆) (other) VH: QVQLVQSGAEVKKPGASVKVSCKASGYTFTNYGINWVRQAPGQGLEWMGWISAYNGYTDYAQKLQGRVSMTTDTSTSTVYMELRSLRSDDTAVYYCARDDAINGGDYWGQGTLVTVSS VL: not shown | – | no binding | binds | no binding | no binding
